Results as given in publication PMC5004264, “The pesticidal Cry6Aa toxin from Bacillus thuringiensis is structurally similar to HlyE-family alpha pore-forming toxins” (BMC Biology, 2016).

T1: Cry6Aa trypsin-resistant core, polypeptide chain 12-390 (Bacillus thuringiensis, UniProt Q45757 12-390)
T1 construct: cut after Arg11 and after Arg390; Never separated from the C-terminal peptide without reduction; Cys88 is disulfide bonded to Cys451 of the peptide; also called main body of the toxin; major core
T1 sequence (looked up): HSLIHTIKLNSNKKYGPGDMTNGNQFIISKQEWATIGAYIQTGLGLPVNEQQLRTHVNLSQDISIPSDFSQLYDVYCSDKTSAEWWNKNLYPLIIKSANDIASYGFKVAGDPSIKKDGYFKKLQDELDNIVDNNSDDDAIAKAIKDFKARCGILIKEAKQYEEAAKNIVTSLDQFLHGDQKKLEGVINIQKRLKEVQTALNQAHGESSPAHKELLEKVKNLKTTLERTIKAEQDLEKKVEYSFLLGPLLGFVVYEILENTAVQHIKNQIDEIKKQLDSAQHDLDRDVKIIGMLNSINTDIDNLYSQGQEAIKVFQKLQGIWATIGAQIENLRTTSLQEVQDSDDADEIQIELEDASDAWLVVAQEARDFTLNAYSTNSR

B1: Cry6Aa C-terminal peptide CTP2 (residues 451-475) (peptide)
peptide: CPENNFMIYWYNNSDWYNNSDWYNN
notes: Minor species of the trypsin-processed toxin
B2: Cry6Aa C-terminal peptide CTP1 (residues 444-475) (peptide)
peptide: NSNLEYKCPENNFMIYWYNNSDWYNNSDWYNN
notes: Cys451 is disulfide bonded to Cys88 of chain 12-390

Assays:
[1] = target: full-length, wild-type Cry6Aa1 (Bacillus thuringiensis) (UniProt Q45757); test: SEC + other: non-denaturing and denaturing SDS-PAGE; Superdex 75 26/90, 25 mM CAPS pH 10, 50 mM NaCl, 2.5 ml/min; first peak at the void volume held dimers (only monomers on denaturing SDS-PAGE), second peak predominantly monomer
[2] = target: T1, Cry6Aa trypsin-resistant core, …; test: intact mass LC-MS; conditions: both partners purified

Molecule	stoichiometry N [1]	binding result [2]
full-length, wild-type Cry6Aa1 (from UniProt Q45757 1-475) (natural protein)	2	–
B1	–	binds
B2	–	binds
